Laboratory results from PMC7283332 (2020).
Residue numbers refer to the chain shown, from its start. In names and notes the source's numbering stands.

T1: Fc-wtNKG2D (human, UniProt P26718 78-216)
T1 chain: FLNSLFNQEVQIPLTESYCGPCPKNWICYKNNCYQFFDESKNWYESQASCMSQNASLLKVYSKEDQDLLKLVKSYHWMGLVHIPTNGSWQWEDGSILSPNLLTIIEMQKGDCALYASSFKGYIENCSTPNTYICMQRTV

B1: ULBP2.R81W, monomeric α1α2 domain (domain or fragment)
chain: DPHSLCYDITVIPKFRPGPRWCAVQGQVDEKTFLHYDCGNKTVTPVSPLGKKLNVTTAWKAQNPVLREVVDILTEQLWDIQLENYTPKEPLTLQARMSCEQKAEGHSSGSWQFSFDGQIFLLFDSEKRMWTTVHPGARKMKEKWENDKVVAMSFHYFSMGDCIGWLEDFLMGMDSTLEPSAGAP
B2: ULBP2 α1α2 domain, C-terminal 6×-His (domain or fragment)
chain: B1 chain with W78R
B3: Fc-iNKG2D.YA (Fc fusion)
chain: T1 chain with Y75A
modifications: biotinylated only in the ELISA on coated ligand-Fc proteins

Experiments:
Assay in all cases: BLI
Fc-wtNKG2D = target: T1, Fc-wtNKG2D
Fc-iNKG2D.YA = target: B3
[1] = target: ULBP2.S3 (U2S3), monomeric α1α2 domain variant (human, UniProt Q9BZM5)

Kd (Fc-wtNKG2D) [nM] | Kd (Fc-iNKG2D.YA) [nM] | Kd [1] [nM] | Binder
8 | 3600 | – | B1
350 | – | – | B2
– | – | 28 | B3
